Source: publication PMC9482650, “Quantitative fragmentomics allow affinity mapping of interactomes” (Nature Communications, 2022)

Legend:
Assay in all cases: holdup assay
Design in all cases: key: below the threshold = too weak to quantify, mostly under pKd 3.1 to 4
Conditions in all cases: plain residues with an end cap or a label only (N-terminal biotin on a linker: ttds)
RIMS2, Q9UQ26 = target: RIMS2, Q9UQ26
SHROOM4, Q9ULL8 = target: T1, SHROOM4, Q9ULL8
T1 sequence (Q9ULL8 5-102, limits assumed, looked up): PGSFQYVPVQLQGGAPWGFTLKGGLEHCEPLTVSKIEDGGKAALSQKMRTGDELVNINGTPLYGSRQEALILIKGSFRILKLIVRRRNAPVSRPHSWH

USH1C_3, Q9Y6N9 = target: T2, USH1C_3, Q9Y6N9
T2 sequence (Q9Y6N9 447-547, limits assumed, looked up): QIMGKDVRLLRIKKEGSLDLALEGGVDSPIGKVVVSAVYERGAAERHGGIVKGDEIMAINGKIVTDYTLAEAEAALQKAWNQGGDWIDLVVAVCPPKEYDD

MPP5, Q8N3R9 = target: T3, MPP5, Q8N3R9
T3 sequence (Q8N3R9 251-346, limits assumed, looked up): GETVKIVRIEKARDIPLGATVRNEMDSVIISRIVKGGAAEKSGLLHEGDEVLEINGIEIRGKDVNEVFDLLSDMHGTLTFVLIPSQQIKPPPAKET

GIPC1, O14908 = target: T4, GIPC1, O14908
T4 sequence (O14908 128-223, limits assumed, looked up): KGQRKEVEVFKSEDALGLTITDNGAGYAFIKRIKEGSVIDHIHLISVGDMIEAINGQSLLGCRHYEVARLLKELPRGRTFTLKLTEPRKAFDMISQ

USH1C_1, Q9Y6N9 = target: T5, USH1C_1, Q9Y6N9
T5 sequence (Q9Y6N9 82-179, limits assumed, looked up): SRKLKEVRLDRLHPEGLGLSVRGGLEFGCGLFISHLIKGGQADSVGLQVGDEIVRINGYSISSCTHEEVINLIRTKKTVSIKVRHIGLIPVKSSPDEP

RIMS1, Q86UR5 = target: RIMS1, Q86UR5
Sequence of RIMS1, Q86UR5 (Q86UR5 584-692): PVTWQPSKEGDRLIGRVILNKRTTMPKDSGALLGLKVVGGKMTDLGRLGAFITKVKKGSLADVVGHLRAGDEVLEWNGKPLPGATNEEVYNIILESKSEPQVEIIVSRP

APBA3_2, O96018 = target: T6, APBA3_2, O96018
T6 sequence (O96018 480-570, limits assumed, looked up): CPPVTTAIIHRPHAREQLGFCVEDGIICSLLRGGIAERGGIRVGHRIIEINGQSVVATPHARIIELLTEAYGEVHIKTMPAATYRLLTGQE

MPP1, Q00013 = target: T7, MPP1, Q00013
T7 sequence (Q00013 66-162, limits assumed, looked up): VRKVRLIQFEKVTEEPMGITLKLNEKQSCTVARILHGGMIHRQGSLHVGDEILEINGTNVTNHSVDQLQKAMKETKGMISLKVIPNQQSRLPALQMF

PDZD7_1, Q9H5P4 = target: T8, PDZD7_1, Q9H5P4
T8 sequence (Q9H5P4 81-178, limits assumed, looked up): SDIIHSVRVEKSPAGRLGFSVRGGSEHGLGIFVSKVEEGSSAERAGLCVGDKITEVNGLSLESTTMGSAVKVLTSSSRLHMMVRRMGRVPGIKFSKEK

PREX2_2, Q70Z35 = target: T9, PREX2_2, Q70Z35
T9 sequence (Q70Z35 672-764, limits assumed, looked up): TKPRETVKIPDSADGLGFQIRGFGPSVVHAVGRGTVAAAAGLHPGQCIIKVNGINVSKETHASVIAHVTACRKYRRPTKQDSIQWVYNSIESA

DLG2_1, Q15700 = target: DLG2_1, Q15700
PDZD2_6, O15018 = target: T10, PDZD2_6, O15018
T10 sequence (O15018 2745-2839, limits assumed, looked up): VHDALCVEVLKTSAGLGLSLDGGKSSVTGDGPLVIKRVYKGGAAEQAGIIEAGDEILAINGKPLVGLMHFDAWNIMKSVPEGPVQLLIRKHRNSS

MAST3, O60307 = target: MAST3, O60307
Sequence of MAST3, O60307 (O60307 945-1048): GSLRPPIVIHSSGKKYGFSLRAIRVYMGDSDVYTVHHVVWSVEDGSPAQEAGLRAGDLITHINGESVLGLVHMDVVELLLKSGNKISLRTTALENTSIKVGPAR

LIMK1, P53667 = target: LIMK1, P53667
Sequence of LIMK1, P53667 (P53667 155-268): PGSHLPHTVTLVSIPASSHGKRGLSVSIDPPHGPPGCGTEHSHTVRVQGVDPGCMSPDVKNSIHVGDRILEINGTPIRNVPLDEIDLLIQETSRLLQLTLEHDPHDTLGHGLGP

MAGI1_5, Q96QZ7 = target: MAGI1_5, Q96QZ7
Sequence of MAGI1_5, Q96QZ7 (Q96QZ7 986-1098): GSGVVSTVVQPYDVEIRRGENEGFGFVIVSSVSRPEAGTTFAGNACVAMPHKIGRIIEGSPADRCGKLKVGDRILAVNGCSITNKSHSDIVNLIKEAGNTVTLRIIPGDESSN

Q9NPB6 = target: Q9NPB6
PTPN13_5, Q12923 = target: T11, PTPN13_5, Q12923
T11 sequence (Q12923 1877-1975, limits assumed, looked up): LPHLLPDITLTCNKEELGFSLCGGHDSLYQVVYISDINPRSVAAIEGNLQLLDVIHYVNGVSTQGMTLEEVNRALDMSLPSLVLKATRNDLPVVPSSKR

SDCBP_1, O00560 = target: SDCBP_1, O00560
Sequence of SDCBP_1, O00560 (O00560 111-198): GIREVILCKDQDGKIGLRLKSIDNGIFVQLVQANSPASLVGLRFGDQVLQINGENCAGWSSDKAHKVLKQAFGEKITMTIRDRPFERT

GIPC3, Q8TF64 = target: GIPC3, Q8TF64
Sequence of GIPC3, Q8TF64 (Q8TF64 107-202): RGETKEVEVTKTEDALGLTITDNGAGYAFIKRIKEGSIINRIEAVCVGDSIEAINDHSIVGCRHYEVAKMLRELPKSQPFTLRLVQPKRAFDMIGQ

RGS3, P49796-9 = target: RGS3, P49796-9
Sequence of RGS3, P49796-9 (P49796 other isoform, or with tags, fused parts or gaps): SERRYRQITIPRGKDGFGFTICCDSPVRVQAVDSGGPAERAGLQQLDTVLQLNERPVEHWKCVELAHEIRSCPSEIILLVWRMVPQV

LNX2_4, Q8N448 = target: T12, LNX2_4, Q8N448
T12 sequence (Q8N448 595-690, limits assumed, looked up): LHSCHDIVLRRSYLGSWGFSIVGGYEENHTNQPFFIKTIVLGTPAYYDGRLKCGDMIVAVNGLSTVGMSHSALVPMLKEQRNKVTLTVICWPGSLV

PDZD9, Q8IXQ8 = target: PDZD9, Q8IXQ8
Sequence of PDZD9, Q8IXQ8 (Q8IXQ8 23-120): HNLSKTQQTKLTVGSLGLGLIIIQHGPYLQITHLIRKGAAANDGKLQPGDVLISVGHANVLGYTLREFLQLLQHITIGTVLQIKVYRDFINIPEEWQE

PARD3B_2, Q8TEW8 = target: PARD3B_2, Q8TEW8
Sequence of PARD3B_2, Q8TEW8 (Q8TEW8 376-471): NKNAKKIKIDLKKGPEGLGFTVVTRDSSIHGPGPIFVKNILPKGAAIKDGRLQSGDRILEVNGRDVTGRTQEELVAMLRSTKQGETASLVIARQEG

SHANK3, Q9BYB0 = target: T13, SHANK3, Q9BYB0
T13 sequence (Q9BYB0 641-750, limits assumed, looked up): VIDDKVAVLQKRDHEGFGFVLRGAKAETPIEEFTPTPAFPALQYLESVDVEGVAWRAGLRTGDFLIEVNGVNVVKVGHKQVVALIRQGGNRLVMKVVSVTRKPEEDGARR

Sequence of RIMS2, Q9UQ26 (Q9UQ26 637-758): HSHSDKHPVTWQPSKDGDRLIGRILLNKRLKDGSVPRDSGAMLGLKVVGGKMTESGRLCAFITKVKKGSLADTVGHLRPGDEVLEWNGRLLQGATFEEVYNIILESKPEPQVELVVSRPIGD

Q: How did the pKd (RIMS2, Q9UQ26) turn out when SSIDLWETAL [SLC15A5, A6NIM6] was run?
A: below the threshold

Q: What about the pKd (SHROOM4, Q9ULL8) of the same binder?
A: below the threshold

Q: And the pKd (USH1C_3, Q9Y6N9)?
A: below the threshold

Q: What about the pKd (MPP5, Q8N3R9) of the same binder?
A: below the threshold

Q: What about the pKd (GIPC1, O14908) of the same binder?
A: below the threshold

Q: And the pKd (USH1C_1, Q9Y6N9)?
A: 4.64

Q: And the pKd (RIMS1, Q86UR5)?
A: below the threshold

Q: What about the pKd (APBA3_2, O96018) of the same binder?
A: below the threshold

Q: And the pKd (MPP1, Q00013)?
A: below the threshold

Q: And the pKd (PDZD7_1, Q9H5P4)?
A: 4.95

Q: What about the pKd (PREX2_2, Q70Z35) of the same binder?
A: below the threshold

Q: And the pKd (DLG2_1, Q15700)?
A: below the threshold

Q: What about the pKd (PDZD2_6, O15018) of the same binder?
A: below the threshold

Q: And the pKd (MAST3, O60307)?
A: 4.91

Q: What about the pKd (LIMK1, P53667) of the same binder?
A: below the threshold

Q: What about the pKd (MAGI1_5, Q96QZ7) of the same binder?
A: 5.82

Q: What about the pKd (Q9NPB6) of the same binder?
A: below the threshold

Q: What about the pKd (PTPN13_5, Q12923) of the same binder?
A: 4.86

Q: What about the pKd (SDCBP_1, O00560) of the same binder?
A: below the threshold

Q: And the pKd (GIPC3, Q8TF64)?
A: below the threshold

Q: And the pKd (RGS3, P49796-9)?
A: below the threshold

Q: And the pKd (LNX2_4, Q8N448)?
A: 5.03

Q: What about the pKd (PDZD9, Q8IXQ8) of the same binder?
A: below the threshold

Q: And the pKd (PARD3B_2, Q8TEW8)?
A: below the threshold

Q: And the pKd (SHANK3, Q9BYB0)?
A: 6.63

Q: Which pKd (RIMS2, Q9UQ26) does the source give for SHSSKGETAV [FZD7, O75084] here?
A: below the threshold

Q: What about the pKd (SHROOM4, Q9ULL8) of the same binder?
A: below the threshold

Q: What about the pKd (USH1C_3, Q9Y6N9) of the same binder?
A: below the threshold

Q: What about the pKd (MPP5, Q8N3R9) of the same binder?
A: below the threshold

Q: What about the pKd (GIPC1, O14908) of the same binder?
A: 4.44

Q: What about the pKd (USH1C_1, Q9Y6N9) of the same binder?
A: below the threshold

Q: What about the pKd (RIMS1, Q86UR5) of the same binder?
A: below the threshold

Q: And the pKd (APBA3_2, O96018)?
A: below the threshold

Q: What about the pKd (MPP1, Q00013) of the same binder?
A: 4.85

Q: And the pKd (PDZD7_1, Q9H5P4)?
A: below the threshold

Q: What about the pKd (PREX2_2, Q70Z35) of the same binder?
A: 4.3

Q: What about the pKd (DLG2_1, Q15700) of the same binder?
A: 4.38

Q: What about the pKd (PDZD2_6, O15018) of the same binder?
A: below the threshold

Q: What about the pKd (MAST3, O60307) of the same binder?
A: below the threshold

Q: And the pKd (LIMK1, P53667)?
A: below the threshold

Q: What about the pKd (MAGI1_5, Q96QZ7) of the same binder?
A: below the threshold

Q: And the pKd (Q9NPB6)?
A: below the threshold

Q: And the pKd (PTPN13_5, Q12923)?
A: below the threshold

Q: And the pKd (SDCBP_1, O00560)?
A: below the threshold

Q: What about the pKd (GIPC3, Q8TF64) of the same binder?
A: below the threshold

Q: What about the pKd (RGS3, P49796-9) of the same binder?
A: below the threshold

Q: And the pKd (LNX2_4, Q8N448)?
A: below the threshold

Q: What about the pKd (PDZD9, Q8IXQ8) of the same binder?
A: below the threshold

Q: What about the pKd (PARD3B_2, Q8TEW8) of the same binder?
A: 4.42

Q: What about the pKd (SHANK3, Q9BYB0) of the same binder?
A: below the threshold

Q: Which results are given for PSRDRKETSI [RALBP1, Q15311]?
A: pKd (RIMS2, Q9UQ26): below the threshold; pKd (SHROOM4, Q9ULL8): below the threshold; pKd (USH1C_3, Q9Y6N9): below the threshold; pKd (MPP5, Q8N3R9): below the threshold; pKd (GIPC1, O14908): 3.78; pKd (USH1C_1, Q9Y6N9): below the threshold; pKd (RIMS1, Q86UR5): below the threshold; pKd (APBA3_2, O96018): below the threshold; pKd (MPP1, Q00013): 4.01; pKd (PDZD7_1, Q9H5P4): below the threshold; pKd (PREX2_2, Q70Z35): below the threshold; pKd (DLG2_1, Q15700): 4.34; pKd (PDZD2_6, O15018): below the threshold; pKd (MAST3, O60307): below the threshold; pKd (LIMK1, P53667): 4.16; pKd (MAGI1_5, Q96QZ7): below the threshold; pKd (Q9NPB6): below the threshold; pKd (PTPN13_5, Q12923): below the threshold; pKd (SDCBP_1, O00560): below the threshold; pKd (GIPC3, Q8TF64): below the threshold; pKd (RGS3, P49796-9): below the threshold; pKd (LNX2_4, Q8N448): below the threshold; pKd (PDZD9, Q8IXQ8): below the threshold; pKd (PARD3B_2, Q8TEW8): 3.74; pKd (SHANK3, Q9BYB0): below the threshold
